The results in this text go back to paper PMC6168700 (2018).

Assay [1] deals with T1, Full-length Has1, His-tagged (Saccharomyces cerevisiae (strain ATCC …, UniProt Q03532)). The assay can be described thus: Ni-NTA pull-down, Coomassie SDS-PAGE.
Assay [2] addresses T2, Full-length Rok1, His-tagged (Saccharomyces cerevisiae (strain ATCC …, UniProt P45818)).
T2 chain: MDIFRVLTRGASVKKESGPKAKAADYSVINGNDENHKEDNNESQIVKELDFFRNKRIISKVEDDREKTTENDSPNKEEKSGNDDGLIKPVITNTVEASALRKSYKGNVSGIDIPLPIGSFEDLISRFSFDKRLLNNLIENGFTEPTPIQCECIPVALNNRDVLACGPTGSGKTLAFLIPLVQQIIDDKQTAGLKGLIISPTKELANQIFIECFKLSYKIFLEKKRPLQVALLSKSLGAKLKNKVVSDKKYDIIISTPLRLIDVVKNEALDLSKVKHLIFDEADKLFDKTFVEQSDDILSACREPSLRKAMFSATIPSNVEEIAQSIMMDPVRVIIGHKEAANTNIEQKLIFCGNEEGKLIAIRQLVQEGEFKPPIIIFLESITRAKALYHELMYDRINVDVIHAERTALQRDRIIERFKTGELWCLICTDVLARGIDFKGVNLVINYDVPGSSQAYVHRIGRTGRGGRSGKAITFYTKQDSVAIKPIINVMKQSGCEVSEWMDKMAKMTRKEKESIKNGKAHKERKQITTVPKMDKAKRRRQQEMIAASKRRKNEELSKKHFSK
The assay can be described thus: Ni-NTA pull-down, Coomassie SDS-PAGE; 2 mM ATP present.

Assay [3] concerns the target T1, Full-length Has1, His-tagged. Nature of the assay: Ni-NTA pull-down and co-expression, SDS-PAGE.

T1 sequence (Q03532 whole entry): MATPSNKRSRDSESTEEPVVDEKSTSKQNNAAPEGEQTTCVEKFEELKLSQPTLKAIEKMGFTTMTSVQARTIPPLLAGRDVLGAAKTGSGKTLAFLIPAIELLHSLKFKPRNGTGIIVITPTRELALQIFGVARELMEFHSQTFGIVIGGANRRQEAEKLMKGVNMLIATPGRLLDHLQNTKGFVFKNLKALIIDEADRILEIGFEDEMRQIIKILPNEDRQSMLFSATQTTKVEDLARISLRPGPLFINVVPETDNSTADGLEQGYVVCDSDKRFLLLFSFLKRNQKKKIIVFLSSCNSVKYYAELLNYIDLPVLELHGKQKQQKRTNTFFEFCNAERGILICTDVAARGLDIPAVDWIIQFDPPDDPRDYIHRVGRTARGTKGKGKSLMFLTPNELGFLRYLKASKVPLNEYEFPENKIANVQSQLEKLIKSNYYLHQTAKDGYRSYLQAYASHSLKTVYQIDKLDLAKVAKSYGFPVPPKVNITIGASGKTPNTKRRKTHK

B1: Rrp5 (1083–1343), the last 3 S1 domains only (protein)
chain: STIKVGDELPGRVLKIAEKYVLLDLGNKVTGISFITDALNDFSLTLKEAFEDKINNVIPTTVLSVDEQNKKIELSLRPATAKTRSIKSHEDLKQGEIVDGIVKNVNDKGIFVYLSRKVEAFVPVSKLSDSYLKEWKKFYKPMQYVLGKVVTCDEDSRISLTLRESEINGDLKVLKTYSDIKAGDVFEGTIKSVTDFGVFVKLDNTVNVTGLAHITEIADKKPEDLSALFGVGDRVKAIVLKTNPEKKQISLSLKASHFSKE
For the molecule B1, the binding result in assay [1] and in assay [2] was “no binding” throughout.

B2: Rrp5 (1400–1729), the TPR region alone (protein)
chain: GLSLSAGFDWTASILDQAQEEEESDQDQEDFTENKKHKHKRRKENVVQDKTIDINTRAPESVADFERLLIGNPNSSVVWMNYMAFQLQLSEIEKARELAERALKTINFREEAEKLNIWIAMLNLENTFGTEETLEEVFSRACQYMDSYTIHTKLLGIYEISEKFDKAAELFKATAKKFGGEKVSIWVSWGDFLISHNEEQEARTILGNALKALPKRNHIEVVRKFAQLEFAKGDPERGRSLFEGLVADAPKRIDLWNVYVDQEVKAKDKKKVEDLFERIITKKITRKQAKFFFNKWLQFEESEGDEKTIEYVKAKATEYVASHESQKADE
Turning to B2, in assay [3], the binding result is reported as “no binding”.
